Patent publication US20160108110A1 (Novartis, published 2016)
Substitutions are numbered along the chain they refer to. Each block holds one binder with its values, some of them ahead of it.

Legend:
[1] = molecular target: T1, Human ANGPTL4(26-406)-FLAG-His6-Avi (human, UniProt Q9BY76 24-406, biotin on the C-terminal Avi tag in the biotinylated preparations (immobilised form in SET, ELISA and Octet)); experiment: SET assay (solution equilibrium titration, MSD), IgG
T1 construct: also called full-length human ANGPTL4; hANGPTL4
T1 sequence: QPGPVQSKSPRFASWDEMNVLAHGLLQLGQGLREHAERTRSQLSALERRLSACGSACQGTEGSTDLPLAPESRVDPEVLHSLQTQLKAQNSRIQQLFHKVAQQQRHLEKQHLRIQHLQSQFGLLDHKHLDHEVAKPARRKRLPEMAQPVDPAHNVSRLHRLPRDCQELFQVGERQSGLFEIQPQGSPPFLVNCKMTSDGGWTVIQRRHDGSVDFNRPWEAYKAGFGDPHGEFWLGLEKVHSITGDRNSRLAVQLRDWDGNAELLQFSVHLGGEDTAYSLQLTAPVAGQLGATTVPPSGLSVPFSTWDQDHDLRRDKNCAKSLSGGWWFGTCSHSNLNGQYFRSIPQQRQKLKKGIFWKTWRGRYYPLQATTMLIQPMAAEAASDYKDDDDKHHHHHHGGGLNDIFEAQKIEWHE
Method: (§1) SET assays were performed as follows. In a 96-well polypropylene plate, a constant concentration of ANGPTL4 antibody was mixed with different concentrations of non-biotinylated human, cyno, mouse, or rat full-length ANPGLT4 protein, or human ANGPTL4 N-terminal domain protein (5-fold serial dilution) and incubated at 22° C. for 14 hours with constant shaking (300 rpm). On a pre-blocked 384-well streptavidin-coated Meso Scale Discovery (MSD) plate biotinylated ANGPTL4 (full-length human, cyno, mouse, or rat ANGPTL4, or human ANGPTL4 N-terminal domain) protein (1 nM, 15 μL per well) was immobilized and washed thereafter.
(§2) The equilibrium binding reactions (15 μL per well) were applied to the MSD plate with immobilized ANGPTL4 and incubated for 20 min at 22° C. The unbound material was removed by washing the plate 3 times with wash buffer, and the captured antibody was detected by adding Sulfo-tagged goat anti-human IgG (Meso Scale Discovery). After washing MSD read buffer T was added and the plate was developed using a Sector Imager 6000 (Meso Scale Discovery). The data were transferred to Microsoft Excel for analysis and plotted using GraphPad Prism v6. The KD values were determined by fitting the data to the following equation: […]
(§3) where Bₘₐₓ is the signal when no ANGPTL4 protein is present in solution, CAb is the constant concentration of ANGPTL4 antibody in solution, CAg is the concentration of ANGPTL4 in solution, and KD is the equilibrium dissociation constant.

[2] = molecular target: T1, Human ANGPTL4(26-406)-FLAG-His6-Avi; experiment: cell-based or functional assay
[3] = molecular target: T1, Human ANGPTL4(26-406)-FLAG-His6-Avi; experiment: SET assay
Method: as §1, §2, §3

B1: MOR022768 (antibody, human IgG1, kappa, V domains shown)
VH: EVQLLESGGGLVQPGGSLRLSCAASGFTFSSYYLHWVRQAPGKGLEWVSYISGSGSSTYYADSVKGRFTISRDNSKNTLYLQMNSLRAEDTAVYYCARERSYAHDHWGQGTLVTVSS
VL: DIQMTQSPSSLSASVGDRVTITCRASQDIYIDLNWYQQKPGKAPKLLIYAASKLQSGVPSRFSGSGSGTDFTLTISSLQPEDFATYYCQQGYFLPQTFGQGTKVEIKR
notes: human IgG1
Kd [1]: 4 pM
Reversal of human ANGPTL4 inhibition of human LPL EC50 [2]: 2000 pM

B2: MOR023403 (antibody, human IgG1, kappa, V domains shown)
VH: EVQLLESGGGLVQPGGSLRLSCAASGFTFSSYWMHWVRQAPGKGLEWVSVINLGSQAKYAGSVKGRFTISRDNSKNTLYLQMNSLRAEDTAVYYCARDSYIYDLHWGFDNWGQGTLVTVSS
VL: B1 VL with Y30S, I31S, D32Y, K53R, G91S, F93T, L94H, Q96Y
notes: as MOR023400: built on MOR022771, limits derived; the printed CDR is one residue shorter than the parent stretch
Kd [3]: 3 pM

B5: MOR023404 (antibody, human IgG1, kappa, V domains shown)
VH: B2 VH with N52P, L53Y, G54M, S55G, Q56T, G61D
VL: B1 VL with Y30S, I31S, D32Y, K53R, G91S, F93T, L94H, Q96Y
notes: as for B2
Kd [3]: 8 pM

B8: MOR022769 (antibody, human IgG1, kappa, V domains shown)
VH: B1 VH with S54D, G55A
VL: B1 VL
notes: human IgG1
Kd [1]: 5 pM
Reversal of human ANGPTL4 inhibition of human LPL EC50 [2]: 2000 pM

B11: MOR022767 (antibody, human IgG1, kappa, V domains shown)
VH: B1 VH with S54E
VL: B1 VL
notes: human IgG1
Kd [1]: 19 pM
Reversal of human ANGPTL4 inhibition of human LPL EC50 [2]: 2000 pM

B17: MOR023406 (antibody, human IgG1, kappa, V domains shown)
VH: EVQLLESGGGLVQPGGSLRLSCAASGFTFSSYWMHWVRQAPGKGLEWVSYIPYMGPGKFYADSVKGRFTISRDNSKNTLYLQMNSLRAEDTAVYYCARDSYIYDLHWGFDNWGQGTLVTVSS
VL: B1 VL with Y30S, I31S, D32Y, K53R, G91S, F93T, L94H, Q96Y
notes: as MOR023400: built on MOR022771, limits derived
Kd [3]: 3 pM

B20: MOR023416 (antibody, V domains shown)
VH: QVQLLESGGGLVQPGGSLRLSCAASGFTFSDYALHWVRQAPGKGLEWVSRITYTGLYTYYADSVKGRFTISRDNSKNTLYLQMNSLRAEDTAVYYCAREHYYSSPMGGVAVDNWGQGTLVTVSS
VL: DIVLTQPPSVSGAPGQRVTISCSGSSSNIGYNTVSWYQQLPGTAPKLLIYSNNIRPSGVPDRFSGSKSGTSASLAITGLQAEDEADYYCSSWDFLIKSLVFGGGTKLTVL
notes: as MOR023415: built on parent Fab MOR021798, limits derived
Kd [3]: 1 pM

B21: MOR023417 (antibody, V domains shown)
VH: B20 VH with L56M, Y57W, Y59E
VL: B20 VL
notes: as for B20
Kd [3]: 6 pM

B23: MOR023418 (antibody, V domains shown)
VH: B20 VH with L56Q, T58K
VL: B20 VL
notes: as for B20
Kd [3]: 19 pM

B26: MOR022764 (antibody, human IgG1, lambda, V domains shown)
VH: EVQLVQSGAEVKKPGESLKISCKGSGYSFSTYWISWVRQMPGKGLEWMGIIDPSQSDTRYSPSFQGQVTISADKSISTAYLQWSSLKASDTAMYYCARVYGYVYMDVWGQGTLVTVSS
VL: SYELTQPLSVSVALGQTARITCSGDNLGKKYAYWYQQKPGQAPVLVIYDKTKRPSGIPERFSGSNSGNTATLTISRAQAGDEADYYCASYDWYSSSYVFGGGTKLTVLG
notes: human IgG1
Kd [1]: 7 pM
Reversal of human ANGPTL4 inhibition of human LPL EC50 [2]: 3000 pM

B27: MOR022766 (antibody, human IgG1, lambda, V domains shown)
VH: B26 VH with Q55N, S56T
VL: B26 VL
notes: human IgG1
Kd [1]: 5 pM
Reversal of human ANGPTL4 inhibition of human LPL EC50 [2]: 3000 pM

The next lines start with the values.

Kd [3]: 1 pM
B3: MOR023402 (antibody, human IgG1, kappa, V domains shown)
VH: B17 VH with Y50V, P52G, M54S, P56T, G57H, K58T, F59N
VL: B1 VL with Y30S, I31S, D32Y, K53R, G91S, F93T, L94H, Q96Y
notes: as for B17

Kd [3]: < 1 pM
B4: MOR023446 (antibody, human IgG1, kappa, V domains shown)
VH: B1 VH with Y50S, G53S, S54A, S56H, S57Y, T58I, Y59D
VL: B1 VL
notes: as MOR023439: built on MOR022768, limits derived

Kd [3]: < 1 pM
B6: MOR023439 (antibody, human IgG1, kappa, V domains shown)
VH: B1 VH with Y50G, G53S, S54G, S57Y, T58I, Y59N
VL: B1 VL
notes: built on the parent antibody for IgG conversion MOR022768 with residues 48-66 of the heavy chain replaced; Parent Fab MOR021823

Kd [3]: < 1 pM
B7: MOR023410 (antibody, human IgG1, kappa, V domains shown)
VH: B17 VH with Y50G, P52S, M54S, P56S, G57S, K58T, F59N
VL: B1 VL with Y30S, I31S, D32Y, K53R, G91A, L94A, Q96Y
notes: as MOR023407: built on MOR022771, limits derived

Kd [3]: 1 pM
B9: MOR023412 (antibody, human IgG1, kappa, V domains shown)
VH: B17 VH with Y50G, P52S, M54S, P56S, G57S, K58T, F59N
VL: B1 VL with Y30S, I31S, D32Y, K53R, G91A, F93Y, L94P, Q96Y
notes: as for B7

Kd [3]: < 1 pM
B10: MOR023447 (antibody, human IgG1, kappa, V domains shown)
VH: B1 VH with Y50S, G53S, S54A, S56V, S57Y, T58K, Y59D
VL: B1 VL
notes: as for B4

Kd [3]: 1 pM
B12: MOR023407 (antibody, human IgG1, kappa, V domains shown)
VH: B17 VH with Y50G, P52S, M54S, P56S, G57S, K58T, F59N
VL: B1 VL with Y30S, I31S, D32Y, K53R, Q89F, G91M, F93Y, L94H, Q96Y
notes: built on the parent antibody for IgG conversion MOR022771 with residues 89-96 of the light chain replaced; Parent Fab MOR021830 has another HCDR2 (D53) and Q1 in the VH

Kd [3]: 2 pM
B13: MOR023411 (antibody, human IgG1, kappa, V domains shown)
VH: B17 VH with Y50G, P52S, M54S, P56S, G57S, K58T, F59N
VL: B1 VL with Y30S, I31S, D32Y, K53R, G91A, F93Y, L94H, Q96Y
notes: as for B7

Kd [3]: 1 pM
B14: MOR023400 (antibody, human IgG1, kappa, V domains shown)
VH: B17 VH with Y50G, M54Q, G57A, K58I, F59N
VL: B1 VL with Y30S, I31S, D32Y, K53R, G91S, F93T, L94H, Q96Y
notes: built on the parent antibody for IgG conversion MOR022771 with residues 48-66 of the heavy chain replaced; Parent Fab MOR021830

Kd [3]: < 1 pM
B15: MOR023448 (antibody, human IgG1, kappa, V domains shown)
VH: B1 VH with Y50S, G53S, S54I, G55S, S56G, S57F, Y59E
VL: B1 VL
notes: as for B4

Kd [3]: < 1 pM
B16: MOR023441 (antibody, human IgG1, kappa, V domains shown)
VH: B1 VH with Y50S, S52A, S54M, S56N, S57Y, T58I, Y59D
VL: B1 VL
notes: as for B4

Kd [3]: < 1 pM
B18: MOR023413 (antibody, human IgG1, kappa, V domains shown)
VH: B17 VH with Y50G, P52S, M54S, P56S, G57S, K58T, F59N
VL: B1 VL with Y30S, I31S, D32Y, K53R, G91Y, F93Y, L94P, Q96Y
notes: as for B7

Kd [3]: < 1 pM
B19: MOR023443 (antibody, human IgG1, kappa, V domains shown)
VH: B1 VH with Y50S, S52A, G53S, G55S, S56P, S57A, Y59H
VL: B1 VL
notes: as for B4

Kd [3]: 1 pM
B22: MOR023415 (antibody, V domains shown)
VH: B20 VH with L56F, Y59F
VL: B20 VL
notes: built on parent Fab MOR021798 with residues 48-66 of the VH replaced

Kd [3]: 1 pM
B24: MOR023420 (antibody, V domains shown)
VH: B20 VH with T52S, T54M, L56S, Y57S
VL: B20 VL with S90G, W92F, F94W, L95V, I96T, K97S, S98H, L99V
notes: built on parent Fab MOR021798 with LCDR3 residues 90-99 of the VL replaced (last LCDR3 residue V kept)

Kd [3]: 2 pM
B25: MOR023419 (antibody, V domains shown)
VH: B20 VH with L56V, Y59G
VL: B20 VL
notes: as for B20
